According to patent US11597752B2, “Peptides and combination of peptides and scaffolds thereof for use in immunotherapy against colorectal carcinoma (CRC) and other cancers” (priority 2015, dated 2023):

The substances below were run against HLA-A*02:01 (Homo sapiens, UniProt P04439, D140Y/D185E/D98H/E176V/E277Q/G131W/G231S/I119V/I121R/I166T/I218V/L300P/L318F/N151K/N90K/P208A/P217A/Q86G/Q94H/R138H/R169H/T345S) (assay: MHC binding assay (UV-ligand exchange, beta2m ELISA, peptide exchange yield)). Conditions: binding to HLA-A*02:01, β2m ELISA.
From the text: Candidate peptides for T cell based therapies according to the present invention were further tested for their MHC binding capacity (affinity). The individual peptide-MHC complexes were produced by UV-ligand exchange, where a UV-sensitive peptide is cleaved upon UV-irradiation, and exchanged with the peptide of interest as analyzed. Only peptide candidates that can effectively bind and stabilize the peptide-receptive MHC molecules prevent dissociation of the MHC complexes. To determine the yield of the exchange reaction, an ELISA was performed based on the detection of the light chain (β2m) of stabilized MHC complexes. The assay was performed as generally described in Rodenko et al. (Rodenko et al., 2006).
96 well MAXISorp plates (NUNC) were coated over night with 2 ug/ml streptavidin in PBS at room temperature, washed 4× and blocked for 1 h at 37° C. in 2% BSA containing blocking buffer. Refolded HLA-A*02:01/MLA-001 monomers served as standards, covering the range of 15-500 ng/ml. Peptide-MHC monomers of the UV-exchange reaction were diluted 100 fold in blocking buffer. Samples were incubated for 1 h at 37° C., washed four times, incubated with 2 ug/ml HRP conjugated anti-β2m for 1 h at 37° C., washed again and detected with TMB solution that is stopped with […]. Absorption was measured at 450 nm. Candidate peptides that show a high exchange yield (preferably higher than 50%, most preferred higher than 75%) are generally preferred for a generation and production of antibodies or fragments thereof, and/or T cell receptors or fragments thereof, as they show sufficient avidity to the MHC molecules and prevent dissociation of the MHC complexes.

Substance | Peptide exchange (MHC class I binding score, peptide exchange yield)
3 (RLIPDTLYSV; listed as Homo sapiens) [compound 3] | “++++” (≥75% = ++++)
4 (RLAELTVDEFL; listed as Homo sapiens) [compound 4] | “+++” (≥50 = +++)
6 (FLAELPGSLSL; listed as Homo sapiens) [compound 6] | “+++” (≥50 = +++)
8 (ALMLQGVDLL; listed as Homo sapiens) [compound 8] | “+++” (≥50 = +++)
15 (LQLDKEFQL; listed as Homo sapiens) [compound 15] | “+++” (≥50 = +++)
16 (VLVDQSWVL; listed as Homo sapiens) [compound 16] | “+++” (≥50 = +++)
23 (FLDANGHFV; listed as Homo sapiens) [compound 23] | “+++” (≥50 = +++)
25 (SLADRLIGV; listed as Homo sapiens) [compound 25] | “++++” (≥75% = ++++)
26 (GLASKENFSNVSL; listed as Homo sapiens) [compound 26] | “++” (≥20% = ++)
27 (LLADEDSSYL; listed as Homo sapiens) [compound 27] | “++” (≥20% = ++)
28 (ALTEIQEFI; listed as Homo sapiens) [compound 28] | “++++” (≥75% = ++++)
30 (GLSSAYGGL; listed as Homo sapiens) [compound 30] | “+” (≥10% = +)
31 (LLYGKYVSV; listed as Homo sapiens) [compound 31] | “+++” (≥50 = +++)
32 (KLNTETFGV; listed as Homo sapiens) [compound 32] | “++” (≥20% = ++)
33 (ALWEKNTHL; listed as Homo sapiens) [compound 33] | “+++” (≥50 = +++)
34 (ILLEKSVSV; listed as Homo sapiens) [compound 34] | “+++” (≥50 = +++)
35 (KLLDLTVRI; listed as Homo sapiens) [compound 35] | “+++” (≥50 = +++)
36 (GLLESPSIFNFTA; listed as Homo sapiens) [compound 36] | “+++” (≥50 = +++)
40 (ALSNVIHKV; listed as Homo sapiens) [compound 40] | “++” (≥20% = ++)

Substance | Peptide exchange (MHC class I binding score, peptide exchange yield)
43 (TLDAAQPRV; listed as Homo sapiens) [compound 43] | “++” (≥20% = ++)
44 (SLESKLTSV; listed as Homo sapiens) [compound 44] | “+++” (≥50 = +++)
45 (ALAELLHGA; listed as Homo sapiens) [compound 45] | “+++” (≥50 = +++)
51 (QVWEIQHTV; listed as Homo sapiens) [compound 51] | “++” (≥20% = ++)
52 (ALDSSNSMQTI; listed as Homo sapiens) [compound 52] | “++” (≥20% = ++)
54 (ALLNGEYLLAA; listed as Homo sapiens) [compound 54] | “+++” (≥50 = +++)
56 (VLFTDEGVPKFL; listed as Homo sapiens) [compound 56] | “++” (≥20% = ++)
60 (VLDEDEPRFL; listed as Homo sapiens) [compound 60] | “++” (≥20% = ++)
61 (KLLKLFQGV; listed as Homo sapiens) [compound 61] | “+++” (≥50 = +++)
62 (YLAPENGYL; listed as Homo sapiens) [compound 62] | “++” (≥20% = ++)
63 (KLFSILSTV; listed as Homo sapiens) [compound 63] | “++” (≥20% = ++)
68 (SILQFVHMV; listed as Homo sapiens) [compound 68] | “+++” (≥50 = +++)
69 (GMLNEAEGKAIKL; listed as Homo sapiens) [compound 69] | “++” (≥20% = ++)
72 (YLLDYPNNLL; listed as Homo sapiens) [compound 72] | “+++” (≥50 = +++)
74 (YLMGFLHAV; listed as Homo sapiens) [compound 74] | “+++” (≥50 = +++)
75 (EMIENIQSV; listed as Homo sapiens) [compound 75] | “++” (≥20% = ++)
77 (SLLKRDFGA; listed as Homo sapiens) [compound 77] | “++” (≥20% = ++)
78 (ALDPELLLL; listed as Homo sapiens) [compound 78] | “++” (≥20% = ++)
80 (QVDEVVDIMRV; listed as Homo sapiens) [compound 80] | “++” (≥20% = ++)

Now from value to substance:

Peptide exchange (MHC class I binding score, peptide exchange yield) | Substance
“++++” (≥75% = ++++) | 5 (WLFDDGGLTL; listed as Homo sapiens) [compound 5]
“+++” (≥50 = +++) | 13 (FLLAEDTKV; listed as Homo sapiens) [compound 13]
“++” (≥20% = ++) | 14 (FLDKPEDVLL; listed as Homo sapiens) [compound 14]
“+++” (≥50 = +++) | 17 (ALAAARVEL; listed as Homo sapiens) [compound 17]
“+++” (≥50 = +++) | 19 (RLYTKLLNEA; listed as Homo sapiens) [compound 19]
“+++” (≥50 = +++) | 20 (YLKDGDVML; listed as Homo sapiens) [compound 20]
“+++” (≥50 = +++) | 22 (GLIDEVMVL; listed as Homo sapiens) [compound 22]
“+++” (≥50 = +++) | 24 (VLDGVLMEL; listed as Homo sapiens) [compound 24]
“+++” (≥50 = +++) | 29 (QMLDVAIRV; listed as Homo sapiens) [compound 29]
“++” (≥20% = ++) | 41 (ILDDSFKLL; listed as Homo sapiens) [compound 41]
“+++” (≥50 = +++) | 46 (GLDDRYSLV; listed as Homo sapiens) [compound 46]
“++” (≥20% = ++) | 48 (FLDASDPAL; listed as Homo sapiens) [compound 48]
“+++” (≥50 = +++) | 50 (TLMAEMHVV; listed as Homo sapiens) [compound 50]
“+++” (≥50 = +++) | 53 (FLLGSEIKL; listed as Homo sapiens) [compound 53]
“+++” (≥50 = +++) | 57 (NLLEKENYL; listed as Homo sapiens) [compound 57]
“++” (≥20% = ++) | 58 (AMADKMDMSL; listed as Homo sapiens) [compound 58]
“++” (≥20% = ++) | 66 (GLDDGPDFL; listed as Homo sapiens) [compound 66]
“+++” (≥50 = +++) | 67 (SLNDLEKDVMLL; listed as Homo sapiens) [compound 67]
“+++” (≥50 = +++) | 70 (MISELEVRL; listed as Homo sapiens) [compound 70]
“+++” (≥50 = +++) | 71 (RLWTEIPTAI; listed as Homo sapiens) [compound 71]
“+++” (≥50 = +++) | 73 (YLFDIAVSM; listed as Homo sapiens) [compound 73]
“+++” (≥50 = +++) | 76 (YLIGEKQHYL; listed as Homo sapiens) [compound 76]
“++” (≥20% = ++) | 79 (SLAADQLLKL; listed as Homo sapiens) [compound 79]
“+++” (≥50 = +++) | 81 (ALLSQQTHL; listed as Homo sapiens) [compound 81]
